Data published in paper PMC10328973.

What was measured:
[1] = molecular target: UKNP5.2.1 E2E1-I53-50A trimer (permuted HCV envelope glycoprotein, genotype 5) (hepatitis C virus, strain UKNP5.2.1 (genotype 5))
[2] = molecular target: UKNP2.2.1 E2E1-I53-50A trimer; test: ELISA; details: read off a plot
[3] = molecular target: UKNP5.2.1 E2E1-I53-50A trimer; test: ELISA; details: read off a plot

Substance: AR3C (mature bNAb, IgG) (antibody)
- Supplementary Figure 7b: IC50 of neutralization of UKNP5.2.1 HCVpp (% infectivity, serial dilution of IgG), AR3C IgG [1]: 0.07 µg/mL

Substance: HEPC3 (mature bNAb, IgG) (antibody)
- Supplementary Figure 7b: IC50 of neutralization of UKNP5.2.1 HCVpp (% infectivity, serial dilution of IgG), HEPC3 IgG [1]: 0.14 µg/mL

Substance: gl-AR3A F54L
- other: AUC ([2]; parent: est. 0.001): 0.001
- other: AUC ([3]; parent: est. 3.4): 1.4

Substance: gl-AR3A F54L; G50R
- other: AUC ([2]; parent: est. 0.001): 0.001
- other: AUC ([3]; parent: est. 3.4): 0.001

Substance: gl-AR3A G50R
- other: AUC ([2]; parent: est. 0.001): 0.001
- other: AUC ([3]; parent: est. 3.4): 0.001

Substance: gl-AR3C F54L
- other: AUC ([2]; parent: est. 2.1): 18
- other: AUC ([3]; parent: est. 0.65): 4.8

Substance: gl-AR3C F54L; G50R
- other: AUC ([2]; parent: est. 2.1): 0.001
- other: AUC ([3]; parent: est. 0.65): 0.001

Substance: gl-AR3C G50R
- other: AUC ([2]; parent: est. 2.1): 0.001
- other: AUC ([3]; parent: est. 0.65): 0.001

Substance: gl-HEPC74 F54L
- other: AUC ([2]; parent: est. 1.0): 1.9
- other: AUC ([3]; parent: est. 0.010): 0.03

Substance: gl-HEPC74 F54L; G50R
- other: AUC ([2]; parent: est. 1.0): 12
- other: AUC ([3]; parent: est. 0.010): 0.11

Substance: gl-HEPC74 G50R
- other: AUC ([2]; parent: est. 1.0): 7.4
- other: AUC ([3]; parent: est. 0.010): 0.04
